From the nanobody polyreactivity screen of Harvey et al. (2022)

Experiment: yeast display, Sf9 membrane polyspecificity reagent, FACS + sequencing; frameworks hold sequencing errors
Method in brief: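 Synthetic nanobody libraries on Saccharomyces cerevisiae BJ5465 were galactose-induced for 36–48 hours, stained 1 hour at 4 °C with 10% biotinylated, detergent-solubilized Sf9 membrane reagent and enriched on streptavidin microbeads. FACS then separated cells into low and high (top ~1%) gates by anti-HA (expression) and streptavidin (reagent binding) fluorescence. Genes were colony-PCR amplified, MiSeq 2 × 250 sequenced and CDR-length filtered. A clone's polyreactivity label is that of its gate of origin.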

QVQLVESGGGLVQAGGSLRLSCAASGGIFESYAMGWYRQAPGKERELVASISSGGSTYYADSVKGRFTISRDNAKNTVYLQMNSLKPEDTAVYYCEYYYWGQGTQVTVSS
polyreactivity (PSR sort gate): low polyreactivity

QVQLVESGGGLVQAGGSLRLSCAASGRIFNRNAMVWSRQAPGKERELVASISSGGRTNYADSVKGRFTISRDNAKNTVYLQMNSLKPEDTAVYYCAAKSPRILLDYWGQGTQVTVSS
polyreactivity (PSR sort gate): low polyreactivity

QVQLVESGGGLVQAGGSLRLSCAASGRIFGPYTMGWYRQAPGKERELVAAINGRGGSTYYADSVKGRFTISRDNAKNTVYLQMNSLKPEDTAVYYFNASPTWVYSRVYGYNYWGQGTQVTVSS
polyreactivity (PSR sort gate): low polyreactivity

QVQLVESGGGLVQAGGSLRLSCAASGRIFGAYAMGWYRQAPGKERELVAVITTDGSTTYADSVKGRFTISRDNAKNTVYLQMNSLKPEDTAVYYCAAYGGNGQYYSQYDYWGQGTQVTVSS
polyreactivity (PSR sort gate): low polyreactivity

QVQLVESGGGLVQAGGSLRLSCAASGSTFVANTMGWYRQAPGKERELVATIRRSGGSTYYADSVKGRFTISRDNAKNTVYLQMNSLKPEDTAVYYCAKDSRWPSYRGMDYWGQGTQVTVSS
polyreactivity (PSR sort gate): low polyreactivity

QVQLVESGGGLVQAGGSLRLSCAASGNTFQRYTMGWYRQAPGKERELVAAITWSGGNTYYADSVKGRFTISRDNAKNTVYLQMNSLKPEDTAVYYCATYYWLGLSLYDYWGQGTQVTVSS
polyreactivity (PSR sort gate): low polyreactivity

QVQLVESGGGLVQAGGSLRLSCAASGRTFYGYAMGWYRQAPGKERELVASIDGGGRTYYADSVKGRFTISRDNAKNTVYLQMNSLKPEYNGVYYCAKRSYQYGYPDGYGYWGQGTQVTVSS
polyreactivity (PSR sort gate): low polyreactivity

QVQLVESGGGLVQAGGSLRLSCAASVRTFEGYAMGWDRQEPGKERELVAAISKSGGRTYYADSVKGRFTISRDNAKNTVYLQMNSLKPEHTAVYYCAARVSSGSNSDYWGQGTQVTVSS
polyreactivity (PSR sort gate): high polyreactivity

QVQLVESGGRLVQAGGSLRLRCAASGSTFMSNAMGWYRPAPGKERELVAAITGSGGNTYYADSVKGRFTISRDNAKNTVYLQMNSLKPEDTAVYYCAAVAPRSNYWRGYYYWGQGTQVTVSS
polyreactivity (PSR sort gate): high polyreactivity

QVQHVESGAGIVQAGGSLRLSCAASGSTFKRYAMGWYRQAPGKERELVAAITWRGGSTYYADSVKGRFTISRDNAKNTVYLLMNSLKPDDTAVYYCASDYVYRYDYWGQGTQVTVSS
polyreactivity (PSR sort gate): high polyreactivity

QVQLVESGGGLVQAGGSLRLSCAASGFIFNYYVMGWYRQAPGKERELVATISWRGGRTYYADSVKGRFTISRDNAKNTVYLQMKSLKPEDTAVFYCAKESYYFTRYDYWGQGTQVTVSS
polyreactivity (PSR sort gate): low polyreactivity

QVQLVESGGGLVQAGGSLRLSCAASGSTFFPYAMGWYRQAPGKERELVAAIRWSGGRTYYADSVKGRFTISRDNAKNTVYLQMNSLKPEDTAVYYCAAEKYLDYDYWGQGTQVTVSS
polyreactivity (PSR sort gate): high polyreactivity

QVQLVESGGGLVQAGGSLRLSCAASGFIYGTYAMGWYRQAPGKEREFVAAITRSGSSTYYADSVKGRFTISRDNAKNTVYLLMNSLKPEDTAVYYCAADLTRGRFRYYYWGLGTQVTVSS
polyreactivity (PSR sort gate): high polyreactivity

QVQLVESGGGLVQAGGSLRLSCAASGSNFRNNAMGWYRQAPGKERELVASISSSGDSTYADSVKGRFTISRDNAMITVYLQMNSLKPEDTAVYYCARDYLSPYAVDYWGQGTQVTVSS
polyreactivity (PSR sort gate): low polyreactivity

QVQHVESGGGLVQAGGSLRLSCAASGSTIQNNAMGWYRQPPGKERELVAAMNNGGSTNYADSVKGRFTISRDNAKNTVYLQMNSLIPEDSAGYYCNTDRHHADYQWGWPSAFEEFGYWGLGTQVTVSS
polyreactivity (PSR sort gate): low polyreactivity

QVQLVESGGGLVQAGGSLRLSCAASGSTFATYTMGWYRQAPGTERELVAAITGSVGSTYYADSVMGRFTISRDNAKNTVYVQMNSRKPQDTAVFYCAARGYRTRRGFTYQYRYEYWGQGTQVTVSS
polyreactivity (PSR sort gate): high polyreactivity

QVQLVESGGGLVQAGGSLRLSCAASGITFTINAMGWYRQAPGKERELVAVIDVSGGSTDYADSVKGRFTISRDNAKNTVYLQMNSLKPEDTAVYYCAADEYDVYYYAYREYYWGQGTQVTVSS
polyreactivity (PSR sort gate): low polyreactivity

QVQLVESGGGLVQAGGSLRLSCAASGSTFDNNAMGWYRQAPGKERELVAAISWGGGSTYYADSVKGRFTISRDNAKNTVYLQMNSLKPEDTAVYYCAKLKGTQPNRYDYWGQGTQVTVSS
polyreactivity (PSR sort gate): low polyreactivity

QVQLVESGGGLVQAGGSLRLSCAASGCIFYINTMGWYRQAPGKERELVAAISQSGVGTSYADSVKGRFTISRDNAKNTVYLQMNSLIPEDTAVYYCATDFARSDVVERFDYWGQGTQVTVSS
polyreactivity (PSR sort gate): low polyreactivity

QVQLVESGGGLDQAGGSLRLSCAASGFIFPIYAMGWNRQAPGKERELVAAISWSGGSTYYADSVKGRFTISRDNAKNTVYLQMNSLKPEDTAVYYCAKRYPYYPYDYWGQGTQVTVSS
polyreactivity (PSR sort gate): high polyreactivity

QVQLVESGGGLVQAGGSLRLSCTASGITSGSYAMGWYRQEPGKESELVAAISNSGSTYYADSVKGRFTISRDNAKNTVYLQMNSLKPEDTEVYYCAAVTVGGHRSHRSGRSDYWGQGTQVTVSS
polyreactivity (PSR sort gate): low polyreactivity

QVQLVESGGGLVQAGGSLRLSCAASGSTFWAYVMGWYRQAPGKERELVAAISSGGTTNYADSVKGRFTISRDNAKNTVYLQMNSLKPEDTAVYYCAAEYPSVYYERFDYWGQGTQVTVSS
polyreactivity (PSR sort gate): low polyreactivity

QVQLVESGGGLVQAGGSLRLSCAASGRIFNYYAMGWYRQAPGKERELVAAISKRGGRTYYADSVKGRFTISRDNAKNTVYLQMNSLKPEDTAVYYCNKGFLPSWFTYPYKYYYWGQGTQVTVSS
polyreactivity (PSR sort gate): low polyreactivity

QVQLVESGGGLVQAGGSLRLSCAASGRIFDYYAMGWYRQAPGKERELVASISRSGGSTYYADSVKGRFTISRDNAKNTVYLQMNSLKPDDSAVYYCAASRGYYYGRVGYWGQGTQVTVSS
polyreactivity (PSR sort gate): high polyreactivity

QVQLVESGGGLVQAGGSLRLSCAASGSTSPNAMGWYRQAPGKERELVAAIWSGGTYYADSVKGRFTISRDNAKNTVYLQMNSLKPEDTAVYYCAVTGVYRGFRYGYWGQGTQVTVSS
polyreactivity (PSR sort gate): low polyreactivity

QVQLVESGGGLVQAGGSLRLSCAASGGTFAAYAMGWYRQAPGKERELVAAIDSGGTTKYADSVKGRFTISRDNAKNTVYLQMNSLKPEDTAVYYCAKVTTGFGVETYHGKGNDYWGQGTQVTVSS
polyreactivity (PSR sort gate): low polyreactivity

QVQLVESGGGLVQAGGSRRLSCAASGSTFRGNAMGWYRQAPGKERELVAASTWSGDDTYYADSVKGRFTISRDNAKNTVYLQMNSLKPEDTPVSYCAADLAAFTLAVADTYDYWGQGTQVTVSS
polyreactivity (PSR sort gate): low polyreactivity

QVQLVESGGGLEQAGGRLRLSCAASGSTFGGYAMGWFRQSPGTERQLVAAISGSGVRTYYADSVKGRFTISRDTAKNTVYLEMNSLNQEDTEVFYCAKRVRYPGDLYYYWGQGTQVTVSW
polyreactivity (PSR sort gate): high polyreactivity

QVQLVESGGGLVQAGGSLRLSCAASGLTFGNYAMGWYRQAPGKERELVAAISWGGGITYYADSVKGRFTISRDNAKNTVYLQMNSLKPEDTAVYYCAADVYFKSTPEYLYDYWGQGTQVTVSS
polyreactivity (PSR sort gate): low polyreactivity

QVQLVESGGGLVQAGGSLRLSCAASGRIITAYAMGWYRQAPGKEREFVAAINVSGGSTYYADSVKGRFTISRDNAKNTVYLQMDSLKPEDSAVYYCNADYYYYDIYWWQMDYWGQGTQVTVSS
polyreactivity (PSR sort gate): low polyreactivity

QVQLVESGGGLVQAGGSLRLSCAASGRIFWGYTMGWYRQAPGKERELVAAITFRGATTYYADSVKGRFTISRDNAKNTVYLQLNSLKPEDTAVYYCAKRGYASGSKWDYGYWGQGTQVTVSS
polyreactivity (PSR sort gate): high polyreactivity

QVQHVESRGGLVQAGGSLRLSCAASGSIFNPYDMGWYRPATGKDRELVAAIDWSGGSTYYADSVKGRFTISRDNAKNTVYLQMNSLKPEDSAVYYCAAGYGGWAWNHVSYGGDYWGQGTQVTVSS
polyreactivity (PSR sort gate): low polyreactivity

QVQLVESGGGLVQAGGSLRLSCAASGSTFGRYAMGWYRQAPGKERELVAAISRGGSTYYADSVKGRFTISRDNAKNTVYLQMNSLKPEDTAVYYCNKGDSKEYDVYYWGQGTQVTVSS
polyreactivity (PSR sort gate): low polyreactivity

QVHLVESGGGLVQAGGSLRLSCADSGRTFGTYAMGWYRQAPGKERELVAAISSGGSTYADSVKGRFTISRDNAKNTVYLQMNSLKPVDTAVYYCNADFSARNYHYYPRRFKYYYWGQGTQVTVSS
polyreactivity (PSR sort gate): high polyreactivity

QVQVVESGGGLLQAGGSLRLSCASSGSTFQYNAMGRYRPAPRKERELVAVITRRGGRTYYADSVKGRFTISRDNAKNTVYLQMNSLKPEDTAVYYCAAYYDYTHRFYYWGQGTQVTVSS
polyreactivity (PSR sort gate): high polyreactivity

QVQLVESGGGLVQAGGSLRLSCAASGSIFPAIALGWYRQAPGKERELVAGISERGSSTYYADSVKGRFTISRDNAKNTVYLQMNSLKPEDTAVYYCAADDVGRYWSSTHNWARGDYWGQGTQVTVSS
polyreactivity (PSR sort gate): low polyreactivity

QVQLVESGGGLVQAGGSLRLICAASGYTLGPYAMGWYRQAPGKERELVAAITSGGSTYYADSVKGRFPISRDNAKHTVYLQMNSLKPEDSAVYYCNKDKGWLAHSRIWLWYDYWGQGTQVTVSS
polyreactivity (PSR sort gate): low polyreactivity

QVQLVESGGGLVQAGGSLRLSCAASGRTFGKYAMGWYRQAPGKERELVAVITWRGVSTYADSVKGRFTISRDNAKNTVYLQMNSLKPEDTSFYYCAKTRVRGTEFGYWGLGTQVTVSS
polyreactivity (PSR sort gate): low polyreactivity

QVQLVESGGGLVQAGGSLRLSCAASGSTFDPYGMGWYRQAPGKERELVAAITSSGRTNYADSVKGRFTISRDNAKNTVYLQMNSLKPEDTAVYYCATRKERYFYRGYEYWGQGTQVTVSS
polyreactivity (PSR sort gate): low polyreactivity

QVQLVESGGGLVQAGGSLRLSCAASGRIFDGYDMGWYRQAPGKERELVAAITSVGSTNYADSVKGRFTISRDNAKNTVYLQMNSLKPEDTAVYYCAAVLYVFYDEYGYWEYFSQYDYWGQGTQVTVSS
polyreactivity (PSR sort gate): low polyreactivity

QVQLVESGGGLVQAGGTLPLSCAATGSILGYYAMGWYRHAPGKERELVAITSGDSTYYADSVKGRFTISRDNAKNTVYLQMNSLKPEDTAVYYCAADVVRGSRYNRYGYWGQGTQVTVSS
polyreactivity (PSR sort gate): high polyreactivity

QVQLVESGGGLVQAGGSLRLSCAASGIILYDYAMGWYRQAPGKERELVAGINRSGGITYYADSVKGRFTISRDNAKNTVYLQMNSLKPEDTAVYYCNAVFRYGATRSYRYDYWGQGTQVTVSS
polyreactivity (PSR sort gate): high polyreactivity

QVQLVESGGGLVQAGGSLRLSCAASGFTFFFYAMGWYRQAPGKEREFVAATSWIGGGTYYADSVKGRFTISRDNAKNTVYLLMNSLKPEDTAVYYCATDLASYAVGSKYGYWGQGTQVTVSS
polyreactivity (PSR sort gate): low polyreactivity
